Reference: PMC5123051, “Neutralization mechanism of a highly potent antibody against Zika virus” (Nature Communications, 2016)

Molecular target: T1, Zika virus envelope (E) protein on purified ZIKV particles, strain H/PF/2013 (Zika virus H/PF/2013 (French Polynesia …, strain))
T1 construct: envelope protein E of Zika virus strain H/PF/2013, cut product of the viral polyprotein, on the virus surface; Stood in the assay as whole virus particles: 180 copies of E in icosahedral symmetry, as dimers, three dimers forming a raft, 30 rafts; M protein and the lipid membrane are also present; E carries a glycan on the '150 glycan loop'; also called molecules A, B and C; source: Aedes …
Assay: cryo-EM structure; Fab C10 mixed with purified ZIKV at 1.5 Fab to every E protein, 30 min at 37 °C then ~1 h on ice; pH8.0 (NTE buffer); 4.0 Å
Conditions: both partners purified

B1: Fab C10 (Fab, V domains shown)
VH: EVQLVESGAEVKKPGASVKVSCKASGYTFTSYAMHWVRQAPGQRLEWMGWINAGNGNTKYSQKFQDRVTITRDTSASTAYMELSSLRSEDTAIYYCARDKVDDYGDYWFPTLWYFDYWGQGTLVTVS
VL: ALTQPASVSGSPGQSITISCTGTSSDVGGFNYVSWFQQHPGKAPKLMLYDVTSRPSGVSSRFSGSKSGNTASLTISGLQAEDEADYYCSSHTSRGTWVFGGGTKLTVL
notes: heavy chain variable region of C10; human IgG1 heavy chain constant region, the part that stays in the Fab after papain digestion; light chain variable region of C10; human lambda 2 light chain constant region; Fab cut from the IgG with papain; also called Fab fragment of HMAb C10; Fab regions of C10 IgG; source: C10 IgG from HEK293T cells, transiently co-transfected, protein A purified; Fab by …
- stoichiometry N: 180 copies of Fab per virus particle
